According to US10279017B2 (priority 2014, dated 2019):
Where two headings read alike, the source gives them in different places.

What was measured:
HASMCs = conditions: GM6001 released from PLGA coating compared to metallic substrate only; cited from earlier work
[1] = system: human aortic smooth muscle cell (HASMC); conditions: coating containing GM6001 compared to metallic substrate only, cited from earlier work
MMP2 [2] = biological target: T1, MMP2 (Homo sapiens, UniProt P08253); design: endogenous in cells; host or cells: human aortic smooth muscle cells (HASMC); conditions: GM6001 releasing coating vs metal substrate; cited from earlier work
T1 sequence (P08253 110-660): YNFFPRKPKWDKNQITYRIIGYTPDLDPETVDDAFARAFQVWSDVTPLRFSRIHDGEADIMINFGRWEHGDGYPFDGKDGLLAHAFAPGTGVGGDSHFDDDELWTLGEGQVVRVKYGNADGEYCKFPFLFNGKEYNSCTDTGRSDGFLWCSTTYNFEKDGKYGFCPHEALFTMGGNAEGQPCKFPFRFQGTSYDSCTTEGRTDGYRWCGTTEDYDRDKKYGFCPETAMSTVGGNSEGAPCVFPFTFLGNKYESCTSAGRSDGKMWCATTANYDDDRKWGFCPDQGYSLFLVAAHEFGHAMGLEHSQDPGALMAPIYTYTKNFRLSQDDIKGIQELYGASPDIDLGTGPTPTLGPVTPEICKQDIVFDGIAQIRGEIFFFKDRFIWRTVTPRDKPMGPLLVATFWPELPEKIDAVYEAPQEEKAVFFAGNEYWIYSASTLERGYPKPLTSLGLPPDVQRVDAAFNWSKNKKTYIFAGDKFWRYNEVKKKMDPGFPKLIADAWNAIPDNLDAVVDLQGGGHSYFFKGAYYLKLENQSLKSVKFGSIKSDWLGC

pseudolysin [3] = biological target: T2, pseudolysin (Pseudomonas aeruginosa, UniProt P14756); conditions: Cathgart G. R. et al, 2011; cited from earlier work
T2 sequence (P14756 198-498): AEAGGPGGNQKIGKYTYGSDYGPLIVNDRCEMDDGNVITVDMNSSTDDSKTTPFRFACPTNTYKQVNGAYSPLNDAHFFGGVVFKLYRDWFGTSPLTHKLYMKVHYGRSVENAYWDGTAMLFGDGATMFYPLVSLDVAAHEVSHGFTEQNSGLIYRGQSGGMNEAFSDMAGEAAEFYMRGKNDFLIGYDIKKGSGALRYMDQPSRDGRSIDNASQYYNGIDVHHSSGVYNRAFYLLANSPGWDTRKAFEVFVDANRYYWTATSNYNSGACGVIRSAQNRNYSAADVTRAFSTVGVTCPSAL

[4] = system: P. aeruginosa cultures VB7623; test: growth curves (OD 600 nm) of clinical isolate; type: cell-based, Pseudomonas aeruginosa
Protocol: (§1) Gentamycin MIC (minimal inhibitory concentration) values were determined using a standard two fold microtiter broth dilution protocol with Nutrient Broth as medium. Midexponential phase cultures of P. aeruginosa reference strain DSM No.: 50071 and two antibiotic-resistant clinical isolates (P. aeruginosa VB7623 and VB7444), which were isolated from the tracheal secrete of a patient, were tested. Antimicrobial susceptibility testing of the clinical isolates was performed by the University Clinic Tubingen. […] Further, the OD (optical density) at 600 nm in the presence and absence of the insect metalloprotease inhibitor IMPI was investigated. For assessing influences of IMPI on bacterial growth final concentrations of IMPI between 20 and 75 μM were used. Bacterial growth was monitored at 37° C. over 48 h. All MIC values were done as triplicates.

[5] = system: P. aeruginosa (DSM No. 50071); test: Gentamycin MIC determination, microtiter broth dilution; type: cell-based, Pseudomonas aeruginosa; conditions: reference strain DSM No. 50071, partially resistant to Gentamycin
Protocol: as §1

bacillolysin = conditions: cited from earlier work
pseudolysin [6] = biological target: T2, pseudolysin; conditions: cited from earlier work
[7] = system: P. aeruginosa (Clinical Isolate VB7623); test: pyoveridine development and planktonic biofilm in 96-well plate; type: cell-based, Pseudomonas aeruginosa; conditions: after 48 h
Protocol: FIG. 9: Comparison of the development of pyoveridine (dark grey background in circular light grey structure, i.e. the plate wells) during growth of P. aeruginosa (Clinical Isolate VB7623 from tracheal secrete, assessed as 4MRGN strain [EUCAST]) in presence (lower rectangle) and absence (upper rectangle) of the M4-metalloprotease inhibitor IMPIα (73 μM; NB-Medium No. 5), and different Gentamycin concentrations (32; 8; 4; 2; 1; 0.5; 0.25; 0.125 μg/ml) in a 96-well plate after 48 h. Pyoveridine is not expressed in the concurrent presence of IMPI and Gentamycin, not even at gentamycin concentrations as low as 0.125 μg/
FIG. 15: Comparison of the development of planctonic biofilm and pyoveridine (grey colour in the wells) during growth of P. aeruginosa (clinical isolate VB7623 from tracheal secrete, assessed as 4MRGN strain [EUCAST]) in the presence (black outlined rectangle) and absence (double outlined rectangle) of the M4-metalloprotease inhibitor IMPI (60 μM; NB-Medium No. 5) in a 96-well plate after 48 h.
as §1

thermolysin = thermolysin (Bacillus thermoproteolyticus, UniProt P00800); conditions: cited from earlier work
Chain of thermolysin (P00800 233-548): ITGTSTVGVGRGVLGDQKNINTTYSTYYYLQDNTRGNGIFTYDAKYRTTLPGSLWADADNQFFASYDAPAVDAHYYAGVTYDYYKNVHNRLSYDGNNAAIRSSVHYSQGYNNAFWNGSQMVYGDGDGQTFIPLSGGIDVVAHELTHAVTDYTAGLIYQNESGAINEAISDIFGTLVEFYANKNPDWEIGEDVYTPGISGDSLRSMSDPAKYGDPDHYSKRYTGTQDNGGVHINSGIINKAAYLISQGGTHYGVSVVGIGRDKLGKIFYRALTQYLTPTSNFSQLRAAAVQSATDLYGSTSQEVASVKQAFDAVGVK

MMP1 = biological target: T3, MMP1 (Homo sapiens, UniProt P03956); conditions: cited from earlier work
T3 sequence (P03956 100-469): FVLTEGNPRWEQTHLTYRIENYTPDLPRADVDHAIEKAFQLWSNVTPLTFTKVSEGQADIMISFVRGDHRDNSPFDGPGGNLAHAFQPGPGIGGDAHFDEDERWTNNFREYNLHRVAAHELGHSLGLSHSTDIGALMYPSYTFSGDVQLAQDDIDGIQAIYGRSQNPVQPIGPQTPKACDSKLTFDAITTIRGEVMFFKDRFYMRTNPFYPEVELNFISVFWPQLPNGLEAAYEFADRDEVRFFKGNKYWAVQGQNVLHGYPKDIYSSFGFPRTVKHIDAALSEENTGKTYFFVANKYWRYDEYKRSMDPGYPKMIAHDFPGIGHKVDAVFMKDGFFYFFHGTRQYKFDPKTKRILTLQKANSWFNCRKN

MMP2 [8] = biological target: T1, MMP2; conditions: cited from earlier work
Pseudomonas aeruginosa = test: formation of freely suspended biofilm in flocs (FIG. 4); type: cell-based; conditions: incubated with IMPIα at 62.5 and 125 ng/ml Gm doses
Protocol: FIG. 4: The formation of freely suspended biofilm in flocs is a successful strategy used by Pseudomonas aeruginosa to overcome stressfull envionmental conditions (e.g. addition of Gentamicin Gm to buffer; Panel A (62.5 ng/ml) and B (125 ng/ml)).

P. aeruginosa = test: synthesis of siderophore pyoverdine; type: cell-based, Pseudomonas aeruginosa; conditions: IMPIα together with the antibiotic gentamycin

Q: What does the source list for `CNC(=O)[C@H](Cc1c[nH]c2ccccc12)NC(=O)[C@@H](CC(=O)NO)CC(C)C` [GM6001]?
A: decrease of migration (HASMCs): 21.4%; reduction of rate of in vitro cell growth ([1]; after 4 days): 30.7%; reduction of rate of in vitro cell growth ([1]; after 7 days): 37.4%; MMP-2 activity normalized to cell number (MMP2 [2]): not statistically different

Q: For `NC(=O)C(Cc1ccc(O)cc1)NC(=O)C(Cc1ccccc1)NC(=O)CS` (stereo not drawn) [N-mercaptoacetyl-Phe-Tyr-amide], which Ki (pseudolysin [3]) is on record?
A: The Ki was 41 nM.

Q: For Gentamicin [Gentamycin], which growth rate ([4]; low concentrations of gentamycin, after 26 h in NB-medium) is on record?
A: The growth rate was “enhance growth”.

Q: What about the growth rate ([4]; very low concentrations of gentamycin) of the same molecule?
A: Its growth rate is “no effect”.

Q: What about the MIC [5] of the same molecule?
A: The MIC was 8 mg/L.

B1: IMPIα: insect metalloproteinase inhibitor from G. mellonella, 69 amino acids; M4-metalloprotease inhibitor (protein, listed as Galleria mellonella)
chain: IVLICNGGHEYYECGGACDNVCADLHIQNKTNCPIINIRCNDKCYCEDGYARDVNGKCIPIKDCPKIRS
Q: For B1, which IC60 (bacillolysin) is on record?
A: The IC60 was 0.86 nM.

Q: What about the IC60 (pseudolysin [6]) of the same molecule?
A: Its IC60 is 81.66 nM.

Q: What about the planctonic biofilm ([7]; IMPI 60 μM, no antibiotic) of the same molecule?
A: Its planctonic biofilm is “no plantonic biofilm can be observed”.

Q: What about the pyoveridine secretion ([7]; IMPI 60 μM, no antibiotic, NB-Medium No. 5) of the same molecule?
A: Its pyoveridine secretion is “secreted less”.

Q: And the pyoveridine expression ([7]; IMPIα 73 μM with Gentamycin down to 0.125 μg/ml, NB-Medium No. 5)?
A: The pyoveridine expression was “not expressed”.

Q: And the IC60 (thermolysin)?
A: Its IC60 is 0.62 nM.

Q: What about the inhibition (MMP1) of the same molecule?
A: Its inhibition is “negligible inhibition”.

Q: And the inhibition (MMP2 [8])?
A: Its inhibition is “negligible inhibition”.

Q: And the biofilm formation (Pseudomonas aeruginosa)?
A: Its biofilm formation is “biofilm formation is prohibited”.

Q: And the synthesis of pyoverdine (P. aeruginosa)?
A: The synthesis of pyoverdine was “inhibited synergistically”.
